Here are results for two molecules from US20180031566A1 (VENTANA MEDICAL SYSTEMS, published 2018).

The target in test [1] is T1, recombinant protein for uPAR-Like domain 1 of C4.4a (amino acids 31-116) (human, UniProt O95274 31-116).
T1 construct: Recombinant domain used in ELISA
T1 sequence: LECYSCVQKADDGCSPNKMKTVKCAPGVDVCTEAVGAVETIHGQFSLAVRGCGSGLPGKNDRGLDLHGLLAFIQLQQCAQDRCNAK
The experiment in a line: ELISA with recombinant domain proteins. (In general: An ELISA detects its analyte on a solid surface through an enzyme-linked reagent.)

Test [2] deals with T2, recombinant protein for uPAR-like domain 2 of C4.4a (amino acids 139-224) (human, UniProt O95274 139-224).
T2 construct: Recombinant domain used in ELISA
T2 sequence: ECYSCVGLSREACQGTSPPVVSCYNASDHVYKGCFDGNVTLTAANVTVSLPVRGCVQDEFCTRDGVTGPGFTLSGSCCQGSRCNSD
Briefly: ELISA with recombinant domain proteins.

B1: anti-C4.4a antibody clone S20H1L1 (antibody, V domains shown)
VH: QEQLEESGGGLVKPGGTLTLTCTASGFSLISTYYICWVRQAPGKGLEWIGCIPLSHSVSWYANWVNGRFSISKTSSTTVTLKMASLTDADTATYFCGRGSSGWGVDSKLWGPGTLVTVSS
VL: AVLTQTPSPVSASVGGTVTINCQSSPSVASGYLSWFQQKPGQPPKLLIYRASTLVSGVPSRFKGSGSGTHFTLTISDVQCDDAATYYCAGAYSSRSDTTFGGGTEVVVK
notes: Rabbit monoclonal antibody; also called SP245 (a S20H1L1 clone)
As to B1, in test [1], the binding result was “binds”.

B2: anti-C4.4a antibody clone S42H9L5 (antibody, V domains shown)
VH: QSLEESGGRLVKPDETLTLTCTVSGFSLNTVAISWVRQAPGKGLEWIGFIHPTVNTYYARWAKGRFTISRASSTTVDLKVTSLTFEDAATYFCVRGNAHYDIWGPGTLVTVSL
VL: AFELTQTPSLVSAAVGGTVTISCQSSQSVYSDNYLAWYQQKPGQRPKLLIYKASDLASGVPSRFKGSGSGTEFTLTISDLECADAATYYCQSYYGVSSDSNAFGGGTEVVVK
notes: Rabbit monoclonal antibody; also called SP246 (a S42H9L5 clone)
As for B2, in test [2], the binding result is on record as “binds”.
